# From patent publication US20260216242A1, “ALPP-SPECIFIC VARIANT ANTIGEN BINDING MOLECULES” (ALMAC DISCOVERY LIMITED, priority 2022, published 2026)
# T1: ALPI His homodimer (Homo sapiens, UniProt P09923)
# T1 sequence (P09923 with tags, fused parts or gaps): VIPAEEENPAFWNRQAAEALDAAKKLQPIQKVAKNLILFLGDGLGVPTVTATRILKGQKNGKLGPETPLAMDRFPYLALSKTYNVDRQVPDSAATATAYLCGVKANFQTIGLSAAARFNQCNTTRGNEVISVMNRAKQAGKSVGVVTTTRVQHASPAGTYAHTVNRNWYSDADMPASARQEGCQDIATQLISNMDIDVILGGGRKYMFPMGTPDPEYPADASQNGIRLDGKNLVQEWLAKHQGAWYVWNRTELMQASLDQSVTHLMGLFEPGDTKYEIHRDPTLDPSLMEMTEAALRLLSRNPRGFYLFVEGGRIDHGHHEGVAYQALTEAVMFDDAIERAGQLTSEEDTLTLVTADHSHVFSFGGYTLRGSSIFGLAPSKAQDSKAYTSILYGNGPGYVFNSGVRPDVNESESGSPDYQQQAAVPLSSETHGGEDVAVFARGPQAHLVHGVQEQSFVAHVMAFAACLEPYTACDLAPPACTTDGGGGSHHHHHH
# Columns and labels:
# ALPP [1] = molecular target: T2, ALPP (Homo sapiens, UniProt P05187); assay: BLI binding kinetics, human ALPP immobilised on AR2G sensors (KD / KD apparent); conditions: VHH domains
# T2 sequence (P05187 with tags, fused parts or gaps): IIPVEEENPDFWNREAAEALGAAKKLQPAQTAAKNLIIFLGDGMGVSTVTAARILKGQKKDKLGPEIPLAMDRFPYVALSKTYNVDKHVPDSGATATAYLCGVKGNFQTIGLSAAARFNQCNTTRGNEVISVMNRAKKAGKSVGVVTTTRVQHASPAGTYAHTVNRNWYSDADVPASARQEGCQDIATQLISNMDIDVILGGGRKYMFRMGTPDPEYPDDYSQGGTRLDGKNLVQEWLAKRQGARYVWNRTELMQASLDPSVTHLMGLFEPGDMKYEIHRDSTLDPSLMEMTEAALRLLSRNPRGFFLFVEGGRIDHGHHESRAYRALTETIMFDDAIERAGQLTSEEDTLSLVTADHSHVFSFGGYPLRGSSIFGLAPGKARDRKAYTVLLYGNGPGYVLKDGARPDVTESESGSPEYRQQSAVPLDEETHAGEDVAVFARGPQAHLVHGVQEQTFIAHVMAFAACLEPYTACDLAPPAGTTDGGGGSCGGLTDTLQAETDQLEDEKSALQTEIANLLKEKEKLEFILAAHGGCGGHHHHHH
# Experimental: (§1) Binding kinetics were determined using the Biolayer Interferometry (BLI) Octet K2 system (Sartorius). Human ALPP, ALPPL2, ALPL (each fused with a cysteine stabilised leucine zipper) and ALPI, (SEQ ID NO: 265, SEQ ID NO: 266 and SEQ ID NO: 267 and SEQ ID NO: 264 respectively) were immobilised in sodium acetate pH5 buffer to AR2G sensors using amine coupling. All assays were conducted in PBS with a plate temperature of 25° C. Ka (M^−1s^−1), Kd (s^−1) and KD (nM) values were determined using Octet Data Analysis High Throughput software (ForteBio) for Biolayer Interferometry.
# (§2) Binding kinetics were determined using the Biolayer Interferometry (BLI) Octet K2 or R4 system (Sartorius). Human ALPP, ALPPL2 and ALPL all fused with a disulphide stabilised leucine zipper (SEQ ID NO: 265, SEQ ID NO: 266, and SEQ ID NO: 267) and ALPI His (SEQ ID NO: 264) were used in BLI experiments. For KD apparent measurements, the ALPP proteins were immobilised in sodium acetate pH5 buffer to AR2G sensors using amine coupling. To measure 1:1 interactions, AHC biosensors were used to immobilise Fc-fused proteins. All assays were conducted in HBS-EP with a plate temperature of 25° C. Ka (M^−1s^−1), Kd (s^−1) and KD (nM) values were determined using Octet Data Analysis High Throughput software (Sartorius) for Biolayer Interferometry.
# as §2, with “NO:264)” for “NO: 264)”
# [2] = Thermal stability (Protein Thermal Shift assay); type: physicochemical; conditions: VHH domains, first derivative analysis
# Experimental: Thermal stability assays used Applied Biosystems StepOne Real Time PCR system with the Protein Thermal Shift™ dye kit (Thermo Fisher). The assay mix was set up so that the protein was at a final concentration of 20 µM in 20 μL. 5 μL of Thermal Shift™ buffer was added alongside 2.5 μL 8× Thermal Shift™ Dye. Assays were run using the StepOne software and data analysed using Protein Thermal Shift™ software. All data are from first derivative analysis.
# ALPI His homodimer = molecular target: T1, ALPI His homodimer; assay: ELISA binding to ALPI; conditions: 500 ng purified VHH
# Experimental: ELISA was used to test the binding and specificity of the VHHs. ALPP CysHis (SEQ ID NO: 263), ALPI His homodimer (SEQ ID NO: 264) or BSA (Thermo Fisher) were coated onto plates and 500 ng of each purified VHH added. Anti-Llama—HRP antibody was used for detection.
# Human ALPPL2 = Human ALPPL2 (Homo sapiens, UniProt P10696); assay: BLI binding kinetics, human ALPPL2 immobilised on AR2G sensors (KD / KD apparent); conditions: VHH domains
# Human ALPPL2, sequence (P10696 with tags, fused parts or gaps): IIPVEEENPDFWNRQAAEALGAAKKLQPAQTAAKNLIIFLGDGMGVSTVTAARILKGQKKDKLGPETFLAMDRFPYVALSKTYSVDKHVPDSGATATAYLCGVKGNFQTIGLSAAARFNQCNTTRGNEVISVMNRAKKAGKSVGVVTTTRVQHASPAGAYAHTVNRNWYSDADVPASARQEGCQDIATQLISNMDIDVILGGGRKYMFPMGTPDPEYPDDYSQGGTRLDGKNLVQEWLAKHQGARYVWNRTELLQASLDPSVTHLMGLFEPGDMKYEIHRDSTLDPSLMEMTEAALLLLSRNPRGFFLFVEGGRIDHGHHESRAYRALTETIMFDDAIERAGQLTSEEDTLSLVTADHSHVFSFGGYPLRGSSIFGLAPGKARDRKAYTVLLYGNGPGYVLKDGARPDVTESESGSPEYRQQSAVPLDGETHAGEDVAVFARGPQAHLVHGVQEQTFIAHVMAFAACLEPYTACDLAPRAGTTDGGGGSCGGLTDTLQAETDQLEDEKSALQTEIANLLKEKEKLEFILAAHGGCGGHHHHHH
# Experimental: as §1, §2
# as §2, with “NO:264)” for “NO: 264)”
# ALPP [3] = molecular target: T2, ALPP; assay: Epitope binning by BLI competition assay; type: binding; conditions: BLI competition on immobilised ALPP
# Experimental: To determine epitope cross reactivity BLI competition assays were conducted. AR2G sensors were used and ALPP immobilised as above. ALPP sensors were then dipped into a well containing a saturating concentration of the initial binder for ten minutes to get an association curve. The sensor was then dipped into a well containing the same concentration of initial binder plus 20 nM of a secondary binding.
# An increase in the association curve was indicative that the second VHH bound to a distinct epitope from the initial binder. Monomers with identical CDR3s were grouped as likely to be in the same epitope bin and only one from each group used in the epitope binning experiment.
Molecule,hALPP Ka (ALPP [1]) [M⁻¹ s⁻¹],hALPP Kd (ALPP [1]) [s⁻¹],Tm [2] [°C],ELISA hALPI (ALPI His homodimer),hALPPL2 Ka (Human ALPPL2) [M⁻¹ s⁻¹],hALPPL2 Kd (Human ALPPL2) [s⁻¹],epitope bin (ALPP [3])
"D04: ALPP/ALPPL2 targeting VHH domain, SEQ ID NO: 26 (protein) VHH: QVQLVESGGGLVQPGGSLRLSCAASESTFSINVMGWYRQAPGKQRELVATITSGDITNYADSVKGRFTISRDNAENTVYLRTNSLKPEDTAVYYCNARGEYHSGNEYDYWGQGTQVTVSS",85100,<1e-07,59.8,No Binding,754000,0.00022,four
"A06: ALPP/ALPPL2 targeting VHH domain, SEQ ID NO: 17; tested C-terminally His-tagged (protein, C-terminal His tag, tested C-terminally His-tagged) VHH: QVHLVESGGGLVQAGGSLRLSCAASGRTFLSMGWFRQAPGKEREFVAAISWTGGSTGYADSVKGRFTISRESDKETMYLQMNSLKPEDTAVYYCAARGDVYYGGDDATRYKYWGQGTQVTVSS",117000,0.000154,73.2,No Binding,133000,0.000672,two
"B01: ALPP/ALPPL2 targeting VHH domain, SEQ ID NO: 20 (protein) VHH: QVQLVESGGGLVQAGGSLRLSCEVTRSPMPIDTMAWYRQAPGRQRELVAIISRSGSTNYADSVKGRFTISRNDTKSTMYKSTMYLKMNTLELEDTGVYYCNAVGLWNGAEYWGQGTQVTVSS",162000,0.000191,82.7,No Binding,482000,0.00014,three
"D10: ALPP targeting VHH domain, SEQ ID NO: 28 (protein) VHH: QVQLVESGGGLVQPGGSLRLSCAASGSIFSVNTMGWYRQAPGKQRDLVAVATSGGTIHYADSVKGRFTISRDNAKNTVYLQMNSLKPEDTAVYYCNLVVPYGMIAGDHDYWGQGTKVTVSS",67300,0.000013,69.9,No Binding,2300000,0.0028,five
"A05: ALPP/ALPPL2 targeting VHH domain, SEQ ID NO: 16; tested C-terminally His-tagged (protein, C-terminal His tag, tested C-terminally His-tagged) VHH: QVQLVESGGGLVQAGASLTLSCAASGFTFNTRSIVWFRQAPGKEREAVSCISKVAGSTYYGDSVQGRFSSSTDNAKNTVSLQMNSLKPEDTAVYTCAASFAPNCYGWSVAANMEYWGEGTMVTVSS",260000,<1e-07,69.5,No Binding,,,one
"E06: ALPP/ALPPL2 targeting VHH domain, SEQ ID NO: 30 (protein) VHH: QVHLVESGGGLVQAGGSLRLSCAASRRSFSEYAMGWFRQAPGKEREFVAAIGWSGVIEYADSVKGRFTISRDNAKDTVYLQMNSLKPEDTAVYYCAAGLGIRVVSQTPAYWGQGTQVTVSS",106000,<1e-07,81.1,No Binding,1050000,0.0000875,one
"E10: ALPP/ALPPL2 targeting VHH domain, SEQ ID NO: 31 (protein) VHH: QVQLVESGGGLVQAGGSLRLSCAVSGRALSDYNIGWFRQAPGKEREFVARKTWDGSSTRYDDSVKGRFTVSIEDAKNTAYLQMSSLKTEDTAVYYCAAGRYSRARGWEYDYWGQGTQVTVSS",54200,<1e-07,71.8,No Binding,1640000,0.000141,one
"F05: ALPP/ALPPL2 targeting VHH domain, SEQ ID NO: 34 (protein) VHH: QVQLVESGGGLVQAGGSLRLSCAASGRAFGDYNIGWFRQAPGKEREFVARRTWDGSSTRYDDSVKGRFTVSIDNAKNTAYLQMNSLKTEDTAVYYCAAGRYSRVRGWEYDYWGQGTQVTVSS",13900,<1e-07,70.6,No Binding,3740000,0.000356,one
"F08: ALPP/ALPPL2 targeting VHH domain, SEQ ID NO: 35 (protein) VHH: QVQLVESGGGSVQAGGSLRLSCAASGPSLSNYAMGWFRQAPGKEREFVAGISWGGGRTSYTDSVKGRFTISRDNAKNTVYLQMNNLKPEDTGVYYCAGRYGRGRNVEYEYDYWGQGTQVTVSS",252000,<1e-07,77.6,No Binding,684000,<1e-07,one
"C07: ALPP/ALPPL2 targeting VHH domain, SEQ ID NO: 25 (protein) VHH: QVQLVESGGGLVQAGESLRLACAASGTIFSGNAVGWYRQAPEKQREWVSSITDYGDTDYAEAVKGRFTISRDNAKNTVYLQMNSLKPEDTAVYYCYVYQRGESEEYWGQGTQVTVSS",129000,0.000028,70.7,No Binding,471000,0.000288,four
